Laboratory results from article PMC6517398, “Selection of a novel DNA aptamer against OFA/iLRP for targeted delivery of doxorubicin to AML cells”.

Target: T1, OFA/iLRP extracellular epitope peptide (UniProt P08865)
T1 chain: NQIQAAFREPR
Assay: flow cytometry of coated beads; PBS (pH not stated), 200 uL, 30 min, room temperature; 2x10^5 coated beads with 20-40 pmol FAM-ssDNA (cells: 40-60 pmol); washed once or twice with PBS
Conditions: label: FAM (5' in selection primer); single strand, 59 nt

B1: AB3 (ssDNA)
DNA: TGCGTGTGTAGTGTGTCTGTTGTTTGTATTGTTGTCTATCCTCTTAGGGATTTGGGCGG
- Kd: 0.101 µM
